Reference: article PMC4351158
Read-outs that look alike come from different tables or passages of the source.

Legend:
[1] = biological target: fluorescent peptide derived from residues 18-58 of lysozyme; test: fluorescence polarisation
[2] = biological target: fluorescent peptide derived from residues 18-58 of lysozyme; test: fluorescence polarisation; remark: listed apart in the source

Row | Kd [1] [µM] | Kd [2] [µM] | Binder
1 | 1 | – | DegP S210A (proteolytically inactive variant missing the catalytic serine) (enzyme, donor or acceptor dye on the trimers in the FRET assay only (site not given)) AETSSATTAQQMPSLAPMLEKVMPSVVSINVEGSTTVNTPRMPRNFQQFFGDDSPFCQEGSPFQSSPFCQGGQGGNGGGQQQKFMALGSGVIIDADKGYVVTNNHVVDNATVIKVQLSDGRKFDAKMVGKDPRSDIALIQIQNPKNLTAIKMADSDALRVGDYTVAIGNPFGLGETVTSGIVSALGRSGLNAENYENFIQTDAAINRGNAGGALVNLNGELIGINTAILAPDGGNIGIGFAIPSNMVKNLTSQMVEYGQVKRGELGIMGTELNSELAKAMKVDAQRGAFVSQVLPNSSAAKAGIKAGDVITSLNGKPISSFAALRAQVGTMPVGSKLTLGLLRDGKQVNVNLELQQSSQNQVDSSSIFNGIEGAEMSNKGKDQGVVVNNVKTGTPAAQIGLKKGDVIIGANQQAVKNIAELRKVLDSKPSVLALNIQRGDSTIYLLMQ
2 | 30 | 30 | DegP S210A/T176V (enzyme, donor or acceptor dye on the trimers in the FRET assay only (site not given)) AETSSATTAQQMPSLAPMLEKVMPSVVSINVEGSTTVNTPRMPRNFQQFFGDDSPFCQEGSPFQSSPFCQGGQGGNGGGQQQKFMALGSGVIIDADKGYVVTNNHVVDNATVIKVQLSDGRKFDAKMVGKDPRSDIALIQIQNPKNLTAIKMADSDALRVGDYTVAIGNPFGLGEVVTSGIVSALGRSGLNAENYENFIQTDAAINRGNAGGALVNLNGELIGINTAILAPDGGNIGIGFAIPSNMVKNLTSQMVEYGQVKRGELGIMGTELNSELAKAMKVDAQRGAFVSQVLPNSSAAKAGIKAGDVITSLNGKPISSFAALRAQVGTMPVGSKLTLGLLRDGKQVNVNLELQQSSQNQVDSSSIFNGIEGAEMSNKGKDQGVVVNNVKTGTPAAQIGLKKGDVIIGANQQAVKNIAELRKVLDSKPSVLALNIQRGDSTIYLLMQ
3 | 30 | 30 | DegP S210A/R187A (enzyme, donor or acceptor dye on the trimers in the FRET assay only (site not given)) AETSSATTAQQMPSLAPMLEKVMPSVVSINVEGSTTVNTPRMPRNFQQFFGDDSPFCQEGSPFQSSPFCQGGQGGNGGGQQQKFMALGSGVIIDADKGYVVTNNHVVDNATVIKVQLSDGRKFDAKMVGKDPRSDIALIQIQNPKNLTAIKMADSDALRVGDYTVAIGNPFGLGETVTSGIVSALGASGLNAENYENFIQTDAAINRGNAGGALVNLNGELIGINTAILAPDGGNIGIGFAIPSNMVKNLTSQMVEYGQVKRGELGIMGTELNSELAKAMKVDAQRGAFVSQVLPNSSAAKAGIKAGDVITSLNGKPISSFAALRAQVGTMPVGSKLTLGLLRDGKQVNVNLELQQSSQNQVDSSSIFNGIEGAEMSNKGKDQGVVVNNVKTGTPAAQIGLKKGDVIIGANQQAVKNIAELRKVLDSKPSVLALNIQRGDSTIYLLMQ
4 | 30 | 30 | DegP S210A/Q200A (enzyme, donor or acceptor dye on the trimers in the FRET assay only (site not given)) AETSSATTAQQMPSLAPMLEKVMPSVVSINVEGSTTVNTPRMPRNFQQFFGDDSPFCQEGSPFQSSPFCQGGQGGNGGGQQQKFMALGSGVIIDADKGYVVTNNHVVDNATVIKVQLSDGRKFDAKMVGKDPRSDIALIQIQNPKNLTAIKMADSDALRVGDYTVAIGNPFGLGETVTSGIVSALGRSGLNAENYENFIATDAAINRGNAGGALVNLNGELIGINTAILAPDGGNIGIGFAIPSNMVKNLTSQMVEYGQVKRGELGIMGTELNSELAKAMKVDAQRGAFVSQVLPNSSAAKAGIKAGDVITSLNGKPISSFAALRAQVGTMPVGSKLTLGLLRDGKQVNVNLELQQSSQNQVDSSSIFNGIEGAEMSNKGKDQGVVVNNVKTGTPAAQIGLKKGDVIIGANQQAVKNIAELRKVLDSKPSVLALNIQRGDSTIYLLMQ
